Literature values in PMC2943937.

Molecular target: CAR (Mus musculus) (UniProt P97792)
Chain of UniProt P97792 (P97792 20-237): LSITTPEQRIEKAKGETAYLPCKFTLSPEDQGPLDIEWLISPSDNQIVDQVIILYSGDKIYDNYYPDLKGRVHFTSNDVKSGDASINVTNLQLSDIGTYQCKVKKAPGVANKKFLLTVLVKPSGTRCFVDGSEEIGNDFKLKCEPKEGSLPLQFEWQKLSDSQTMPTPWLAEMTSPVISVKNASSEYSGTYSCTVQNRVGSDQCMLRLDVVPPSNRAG

## JAML (from UniProt Q80UL9)
  Kd: 5 µM
